The record followed here is paper PMC4133393.

The test has as its target (his)6CfaB, mature CfaB (residues 24–170) with N-terminal hexahistidine tag (enterotoxigenic E. coli (ETEC)) (UniProt E3PPC4). As to the kind of experiment: pull-down.
Sequence of UniProt E3PPC4 (E3PPC4 24-170): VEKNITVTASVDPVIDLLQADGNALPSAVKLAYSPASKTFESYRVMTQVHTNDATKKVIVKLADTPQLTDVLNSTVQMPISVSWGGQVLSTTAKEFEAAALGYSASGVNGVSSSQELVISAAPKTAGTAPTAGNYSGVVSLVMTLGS

With CfaA (20–238) K9A (natural protein), the CfaA/CfaB ratio stood at 0.64.

As for “CfaA (20–238), wild type, untagged (pETDuet-1-cfaA) (natural protein)”, the CfaA/CfaB ratio came out at 0.66.
